Data published in the nanobody polyreactivity screen of Harvey et al. (2022).

Assay: yeast display, Sf9 membrane polyspecificity reagent, FACS + sequencing; frameworks hold sequencing errors
Outline: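 Nanobodies came from a synthetic yeast display library in Saccharomyces cerevisiae BJ5465, induced with galactose for 36–48 hours and stained for 1 hour at 4 °C with 10% biotinylated, detergent-solubilized Sf9 membrane reagent. Cells were enriched on streptavidin microbeads and then FACS-sorted, with low and high (top ~1%) gates set on anti-HA fluorescence for expression and streptavidin fluorescence for reagent binding. Each polyreactivity label reflects the gate a clone came from. Genes were amplified by colony PCR, sequenced by MiSeq 2 × 250 and filtered by CDR length.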

With “QVQLVESGGGLVQAGGSLRLSCAASGSTFIYYAMGWYRQAPGKEWELVAAITSAGRTNYADSVKGRFTISLDNAKHTVYLQMNSLKPEDTAVYYCAAAYRPRKHHYDYWGQGTQVTVSS” as the sequence, how does the “polyreactivity (PSR sort gate)” value read?
The value was “high polyreactivity”.

For “QVQLVESGGGLVQAGGSLRLSCAASGSTFIYYTMGWYRQAPGKERELVAAIPSSGGSTYYADSVKGRFTISRDNAKNTVYLQMNSLKPEDTAVYYCAADGTYIKFAKLYRRYDYWGQGTLVTVSS”, which “polyreactivity (PSR sort gate)” value is on record?
Its value is “low polyreactivity”.

Which “polyreactivity (PSR sort gate)” value does the source give for “QVQLVESGGGLVQAGGSLRLSCAASGSTFKAYAMGLYRPAPGKERELVAAITRRGTSTYYADSVKGRFTISRDNAKNTVYLQMNSLKPEDTAVYYCNAKYVSDRSSAVSFDYWGQGTQVTVSS” here?
Its value is “low polyreactivity”.

For “QVQLVESGGGLVQAGGSLRLSCAASGSTFKAYAMGWYRQAPGKERELVAAITRRGTSTYYADSVKGRFTISRDNAKNTVYLQMNSLKPEDTAVYYCNAKYVSDRSSAVSFDYWGQGTQVTVSS”, which “polyreactivity (PSR sort gate)” value is on record?
The value was “low polyreactivity”.

Which “polyreactivity (PSR sort gate)” value does the source give for “QVQLVESGGGLVQAGGSLRLSCAASGSTFKFNDMGWYRQAPGKERELVAAISRGGRTNYADSVKGRFTISRDNAKNTVYLQMNSLKPEDTAVYYCAADYSTLYKYDYWGQGTQVTVSS” here?
The value was “low polyreactivity”.

Which “polyreactivity (PSR sort gate)” value does the source give for “QVQLVESGGGLVQAGGSLRLSCAASGSTFKFNTMGWYRQAPGKERELVAAISWRGGSTYYADSVKGRFTISRDNAKNTVYLQMYSLKPEDTAFYYCAAPWYIRYDSWGQGTQVTVSS” here?
The value was “high polyreactivity”.

For “QVQLVESGGGLVQAGGSLRLSCAASGSTFKGYAMGWYRQAPGKERELVAAITWIGGSTTYADSVKGRFTISCDNAKNTVYLQMNSLKPEVTAVYYCAADNFWYFLSATEDYWGQGTQVTVSS”, which “polyreactivity (PSR sort gate)” value is on record?
The value was “low polyreactivity”.

Which “polyreactivity (PSR sort gate)” value does the source give for “QVQLVESGGGLVQAGGSLRLSCAASGSTFKHNTMGWYRQAPGKERELVAAITSSGGTYYADSVKGRFTISRDNAKNTVYLQMNSLKPEDTAVYYCAARVTYRGRAYDYWGQGTQVTVSS” here?
The value was “high polyreactivity”.

For “QVQLVESGGGLVQAGGSLRLSCAASGSTFKIYAMGWYRQAPGKERELVARITGRGGSTYYADSVKGRFTISRDNAKNTVYLQMNSLKPEDTAVYYCAARTYYVPYYYWGQGTQVTVSS”, which “polyreactivity (PSR sort gate)” value is on record?
The value was “high polyreactivity”.

Which “polyreactivity (PSR sort gate)” value does the source give for “QVQLVESGGGLVQAGGSLRLSCAASGSTFKLNAMGWYRQAPGKERELLASISTGASTNYADSVKGRFTISLDNAKNTVYVQMNSLNPEDTAVYYCAAQYPFAGYYITQYEYDYWGQGTQVTVSS” here?
Its value is “low polyreactivity”.

With “QVQLVESGGGLVQAGGSLRLSCAASGSTFKPNAMGSYRQAPGKEREFVASITWSAGSTYYADSVKGRFTISRDNAKNTVYLQMNSLKPEDTAVYYCAARLRWAGISRYGYWGQGTQVTVSS” as the sequence, how does the “polyreactivity (PSR sort gate)” value read?
The value was “high polyreactivity”.

With “QVQLVESGGGLVQAGGSLRLSCAASGSTFKQYAMGWYRQAPGKERELVAAISTIGGSTYYADSVKGRFTISRDNAKITVYLQMNSLKPEDTAVYYCAAEYWYIWPYNYWGLGTQVTVSS” as the sequence, how does the “polyreactivity (PSR sort gate)” value read?
The value was “high polyreactivity”.

For “QVQLVESGGGLVQAGGSLRLSCAASGSTFKRYAKGWYRQAPGKERELVAAITLSGGNTYYADSVKGRFTISRDNAKNTVYLQMNSLKPEDTAVYYCAARRYRGYDYWGQGTQVTVSS”, which “polyreactivity (PSR sort gate)” value is on record?
Its value is “high polyreactivity”.

Which “polyreactivity (PSR sort gate)” value does the source give for “QVQLVESGGGLVQAGGSLRLSCAASGSTFKRYAMGWYRQAPGKERELVAAINRSGTSTYADSVKGRFTISRDNAKNTVYLQMNSLKPEDSAVYYCARYYAYLRVKYDYWGQGTQVTVSS” here?
Its value is “high polyreactivity”.

For “QVQLVESGGGLVQAGGSLRLSCAASGSTFKSNAMGWYRQAPGKERELVAAINRSGAGTYYADSVKGRFTISRDNAKHTVYLQLNSLKPEDTAVYYCAAQSYSRRYDYWGQGTQVTVSS”, which “polyreactivity (PSR sort gate)” value is on record?
The value was “high polyreactivity”.

For “QVQLVESGGGLVQAGGSLRLSCAASGSTFKSYTMGWYRPAPGKERELVAAISGSGGRTYYADSVKGRFTISRDNAKNTVYLQMNSLKPEDTAVYYCAATGPYGFYWGQGTQVTVSS”, which “polyreactivity (PSR sort gate)” value is on record?
The value was “high polyreactivity”.

For “QVQLVESGGGLVQAGGSLRLSCAASGSTFKSYVMGWYRAAPGKERELVAAISTGDSTYYADSVKGRFTISRDNAKNTVYLQMNSLKPEDTAVYYCAADPGYTVEPWEDDYWGQGTQVTVSS”, which “polyreactivity (PSR sort gate)” value is on record?
Its value is “low polyreactivity”.
